Test results: PMC12510224

Target: MDM2(S395D) S395D (UniProt Q00987)
Assay: RNA co-IP (anti-MDM2 4B2) with RT-qPCR
Details: RNA co-IP: 50 mM Tris pH 7.5, 150 mM NaCl, 0.01 mM ZnSO4, 2 mM MgCl2, 0.02 mg/mL yeast tRNA, 0.2 mg/mL BSA, room temperature, pull-down overnight at 4 C

Sequence of MDM2(S395D) S395D (Q00987 whole entry S395D): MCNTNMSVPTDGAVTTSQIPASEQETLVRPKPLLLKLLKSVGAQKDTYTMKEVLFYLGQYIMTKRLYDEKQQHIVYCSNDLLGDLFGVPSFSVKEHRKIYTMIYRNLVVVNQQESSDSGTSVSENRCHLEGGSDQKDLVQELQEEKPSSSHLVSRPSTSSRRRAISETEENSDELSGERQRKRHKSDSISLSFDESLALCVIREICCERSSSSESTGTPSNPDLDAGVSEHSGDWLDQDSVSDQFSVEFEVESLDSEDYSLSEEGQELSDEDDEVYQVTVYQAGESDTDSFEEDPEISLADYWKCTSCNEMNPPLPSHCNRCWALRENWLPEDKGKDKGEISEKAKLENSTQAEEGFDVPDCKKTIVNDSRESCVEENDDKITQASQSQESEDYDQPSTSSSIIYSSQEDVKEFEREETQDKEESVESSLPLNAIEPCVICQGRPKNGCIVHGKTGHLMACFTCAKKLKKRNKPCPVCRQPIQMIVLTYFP

With “AUGGAGGAGCCGCAGUCAGAUCCUAGCGUCGAGCCCCCUCUGAGUCAGGAAACAUUUUCAGACCUAUGGAAACUACUUCCUGAAAACAACGUUCUGUCCCCCUUGCCGUCCCAAGCAAUGGAUGAUUUGAUGCUGUCCCCGGACGAUAUUGAACAAUGGUUCACUGAAGACCCAGGUCCAGAUGAAGCUCCCAGAAUGCCAGAGGCUGCUCCCCCCGUGGCCCCUGCACCAGCAGCUCCU [p53 mRNA +1 to +240 WT]” the binding signal (fold increase over no BOX-I oligo) was 60.
